This note sets out measurements from publication PMC6446880.

In the data set the target is T1, IRF3 K359A (IRF3 (K359A)-his) (UniProt P70671 1-419, K359A).
T1 sequence: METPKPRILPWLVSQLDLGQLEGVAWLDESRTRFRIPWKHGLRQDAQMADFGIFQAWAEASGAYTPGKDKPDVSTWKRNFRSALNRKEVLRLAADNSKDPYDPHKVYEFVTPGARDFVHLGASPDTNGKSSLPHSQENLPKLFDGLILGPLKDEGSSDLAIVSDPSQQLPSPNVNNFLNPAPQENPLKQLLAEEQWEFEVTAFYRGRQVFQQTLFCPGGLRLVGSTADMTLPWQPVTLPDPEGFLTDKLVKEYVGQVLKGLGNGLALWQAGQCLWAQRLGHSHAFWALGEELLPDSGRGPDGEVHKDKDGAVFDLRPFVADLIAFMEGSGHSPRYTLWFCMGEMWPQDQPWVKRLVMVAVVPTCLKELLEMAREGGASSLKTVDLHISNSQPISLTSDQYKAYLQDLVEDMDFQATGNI
The experiment in a line: EMSA. Background: Mobility shift assays separate free from complexed probe on a gel.

B1: IFN-β (Ifnb) promoter probe (dsDNA)
DNA 1: GAAAACTGAAAGGGAGAACTGAAAGT
DNA 2: ACTTTCAGTTCTCCCTTTCAGTTTTC
Consider B1, for which the binding result is recorded as “binds”.

B2: IFN-α (Ifna4) promoter probe (dsDNA)
DNA 1: GAAAGTGAAAAGAGAATTGGAAAGC
DNA 2: GCTTTCCAATTCTCTTTTCACTTTC
Take B2: the binding result was “binds”.
